# Experimental data: patent US20250320281A1
# Assays:
# Test in all cases: cell-based or functional assay
# [1] = target: HIV-1 Env of isolate MG RM-D-011 (HIV-1)
# [2] = target: HIV-1 Env of isolate MG RM-D-012 (HIV-1)
# [3] = target: HIV-1 Env of isolate MG RM-D-013 (HIV-1)
# [4] = target: HIV-1 Env of isolate MG RM-D-014 (HIV-1)
# [5] = target: HIV-1 Env of isolate MG RM-D-016 (HIV-1)
# [6] = target: HIV-1 Env of isolate MG RM-D-018 (HIV-1)
# [7] = target: HIV-1 Env of isolate MG RM-D-019 (HIV-1)
# [8] = target: HIV-1 Env of isolate MG RM-D-020 (HIV-1)
# [9] = target: HIV-1 Env of isolate MG RM-D-021 (HIV-1)
# [10] = target: HIV-1 Env of isolate MG RM-D-022 (HIV-1)
# [11] = target: HIV-1 Env of isolate MG RM-D-024 (HIV-1)
# [12] = target: HIV-1 Env of isolate MG RM-D-026 (HIV-1)
# [13] = target: HIV-1 Env of isolate MG RM-D-028 (HIV-1)
# [14] = target: HIV-1 Env of isolate MG RM-D-029 (HIV-1)
# [15] = target: HIV-1 Env of isolate MGRM-C-005 (HIV-1)
# [16] = target: HIV-1 Env of isolate MGRM-F1-004 (HIV-1)
# [17] = target: HIV-1 Env of isolate MGRM-F1-006 (HIV-1)
# [18] = target: HIV-1 Env of isolate MGRM-F1-008 (HIV-1)
# [19] = target: HIV-1 Env of isolate MGRM-F1-010 (HIV-1)
# [20] = target: HIV-1 Env of isolate MGRM-F1-012 (HIV-1)
# [21] = target: HIV-1 Env of isolate MGRM-F1-013 (HIV-1)
# [22] = target: HIV-1 Env of isolate MGRM-F1-014 (HIV-1)
# [23] = target: HIV-1 Env of isolate MGRM-F1-015 (HIV-1)
# [24] = target: HIV-1 Env of isolate MGRM-F1-016 (HIV-1)
# [25] = target: HIV-1 Env of isolate MGRM-F1-017 (HIV-1)
# [26] = target: HIV-1 Env of isolate MGRM-F1-018 (HIV-1)
# [27] = target: HIV-1 Env of isolate MGRM-F1-020 (HIV-1)
# [28] = target: HIV-1 Env of isolate MGRM-F1-021 (HIV-1)
# [29] = target: HIV-1 Env of isolate MGRM-F1-022 (HIV-1)
# [30] = target: HIV-1 Env of isolate MGRM-F1-023 (HIV-1)
# [31] = target: HIV-1 Env of pseudovirus MGRM-AE-007 (subtype AE) (HIV-1)
# [32] = target: HIV-1 Env of pseudovirus MGRM-AE-008 (subtype AE) (HIV-1)
# [33] = target: HIV-1 Env of pseudovirus MGRM-AG-001 (subtype AG) (HIV-1)
# [34] = target: HIV-1 Env of pseudovirus MGRM-AG-002 (subtype AG) (HIV-1)
# [35] = target: HIV-1 Env of pseudovirus MGRM-AG-003 (subtype AG) (HIV-1)
# [36] = target: HIV-1 Env of pseudovirus MGRM-AG-005 (subtype AG) (HIV-1)
# [37] = target: HIV-1 Env of pseudovirus MGRM-AG-006 (subtype AG) (HIV-1)
# [38] = target: HIV-1 Env of pseudovirus MGRM-AG-008 (subtype AG) (HIV-1)
# [39] = target: HIV-1 Env of pseudovirus MGRM-AG-009 (subtype AG) (HIV-1)
# [40] = target: HIV-1 Env of pseudovirus MGRM-AG-011 (subtype AG) (HIV-1)
# [41] = target: HIV-1 Env of pseudovirus MGRM-AG-012 (subtype AG) (HIV-1)
# [42] = target: HIV-1 Env of pseudovirus MGRM-AG-013 (subtype AG) (HIV-1)
# PGT-143 (4980_N08) (antibody), sequence (VH): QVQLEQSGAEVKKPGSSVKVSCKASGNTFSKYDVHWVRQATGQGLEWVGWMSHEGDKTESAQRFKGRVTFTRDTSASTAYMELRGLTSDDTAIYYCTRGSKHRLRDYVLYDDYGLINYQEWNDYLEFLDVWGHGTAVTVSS
# PGT-143 (4980_N08) (antibody), sequence (VL): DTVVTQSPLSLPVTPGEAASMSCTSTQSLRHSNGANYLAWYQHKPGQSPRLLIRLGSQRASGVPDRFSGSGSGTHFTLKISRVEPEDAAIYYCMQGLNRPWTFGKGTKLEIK
# PGT-141 (4964_G22; 4993_K13) (antibody), sequence (VH): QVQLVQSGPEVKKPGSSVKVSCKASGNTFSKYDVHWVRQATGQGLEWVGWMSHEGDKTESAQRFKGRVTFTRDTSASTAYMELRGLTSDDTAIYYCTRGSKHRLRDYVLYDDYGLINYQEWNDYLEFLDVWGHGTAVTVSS
# PGT-141 (4964_G22; 4993_K13) (antibody), sequence (VL): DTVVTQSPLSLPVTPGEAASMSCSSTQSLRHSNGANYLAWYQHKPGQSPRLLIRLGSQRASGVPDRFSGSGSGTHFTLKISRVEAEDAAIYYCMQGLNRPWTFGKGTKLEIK
# PGT-144 (4970_K22) (antibody), sequence (VH): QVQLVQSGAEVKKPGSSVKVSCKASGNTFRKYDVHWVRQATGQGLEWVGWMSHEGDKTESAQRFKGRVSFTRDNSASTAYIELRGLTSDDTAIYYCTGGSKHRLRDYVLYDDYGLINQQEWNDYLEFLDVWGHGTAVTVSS
# PGT-144 (4970_K22) (antibody), sequence (VL): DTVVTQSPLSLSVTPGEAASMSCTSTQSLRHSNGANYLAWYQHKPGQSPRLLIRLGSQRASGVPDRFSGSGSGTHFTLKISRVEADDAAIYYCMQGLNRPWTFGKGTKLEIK
substance,measurement,setting,value
PGT-141 (4964_G22; 4993_K13) (antibody),IC50,[1],> 50 µg/mL
same,IC50,[2],> 50 µg/mL
same,IC50,[3],0.179 µg/mL
same,IC50,[4],0.01 µg/mL
same,IC50,[5],> 50 µg/mL
same,IC50,[6],> 50 µg/mL
same,IC50,[7],1.66 µg/mL
same,IC50,[8],> 50 µg/mL
same,IC50,[9],> 50 µg/mL
same,IC50,[10],> 50 µg/mL
same,IC50,[11],> 50 µg/mL
same,IC50,[12],32.5 µg/mL
same,IC50,[13],< 50 µg/mL
same,IC50,[14],0.057 µg/mL
same,"IC50, pseudovirus neutralization",[15],8.83 µg/mL
same,IC50,[16],0.021 µg/mL
same,IC50,[17],8.99 µg/mL
same,IC50,[18],0.193 µg/mL
same,IC50,[19],> 50 µg/mL
same,IC50,[20],> 50 µg/mL
same,IC50,[21],0.043 µg/mL
same,IC50,[22],0.001 µg/mL
same,IC50,[23],> 50 µg/mL
same,IC50,[24],> 50 µg/mL
same,IC50,[25],30.8 µg/mL
same,IC50,[26],0.785 µg/mL
same,IC50,[27],1.15 µg/mL
same,IC50,[28],> 50 µg/mL
same,IC50,[29],0.114 µg/mL
same,IC50,[30],0.307 µg/mL
same,"IC50, pseudovirus neutralization",[31],33.1 µg/mL
same,"IC50, pseudovirus neutralization",[32],0.101 µg/mL
same,"IC50, pseudovirus neutralization",[33],18 µg/mL
same,"IC50, pseudovirus neutralization",[34],0.049 µg/mL
same,"IC50, pseudovirus neutralization",[35],> 50 µg/mL
same,"IC50, pseudovirus neutralization",[36],0.497 µg/mL
same,"IC50, pseudovirus neutralization",[37],> 50 µg/mL
same,"IC50, pseudovirus neutralization",[38],19.2 µg/mL
same,"IC50, pseudovirus neutralization",[39],> 50 µg/mL
same,"IC50, pseudovirus neutralization",[40],0.118 µg/mL
same,"IC50, pseudovirus neutralization",[41],> 50 µg/mL
same,"IC50, pseudovirus neutralization",[42],> 50 µg/mL
PGT-143 (4980_N08) (antibody),IC50,[1],> 50 µg/mL
same,IC50,[2],> 50 µg/mL
same,IC50,[3],0.386 µg/mL
same,IC50,[4],0.009 µg/mL
same,IC50,[5],> 50 µg/mL
same,IC50,[6],> 50 µg/mL
same,IC50,[7],0.277 µg/mL
same,IC50,[8],> 50 µg/mL
same,IC50,[9],> 50 µg/mL
same,IC50,[10],> 50 µg/mL
same,IC50,[11],> 50 µg/mL
same,IC50,[12],44.6 µg/mL
same,IC50,[13],> 50 µg/mL
same,IC50,[14],0.2 µg/mL
same,IC50,[16],0.036 µg/mL
same,IC50,[17],12.3 µg/mL
same,IC50,[18],0.189 µg/mL
same,IC50,[19],> 50 µg/mL
same,IC50,[20],> 50 µg/mL
same,IC50,[21],0.013 µg/mL
same,IC50,[22],0.001 µg/mL
same,IC50,[23],> 50 µg/mL
same,IC50,[24],> 50 µg/mL
same,IC50,[25],26.3 µg/mL
same,IC50,[26],0.701 µg/mL
same,IC50,[27],0.98 µg/mL
same,IC50,[28],> 50 µg/mL
same,IC50,[29],0.082 µg/mL
same,IC50,[30],0.972 µg/mL
same,"IC50, pseudovirus neutralization",[31],13.6 µg/mL
same,"IC50, pseudovirus neutralization",[32],0.135 µg/mL
same,"IC50, pseudovirus neutralization",[33],18.9 µg/mL
same,"IC50, pseudovirus neutralization",[34],0.076 µg/mL
same,"IC50, pseudovirus neutralization",[35],> 50 µg/mL
same,"IC50, pseudovirus neutralization",[36],1.11 µg/mL
same,"IC50, pseudovirus neutralization",[37],> 50 µg/mL
same,"IC50, pseudovirus neutralization",[38],34 µg/mL
same,"IC50, pseudovirus neutralization",[39],> 50 µg/mL
same,"IC50, pseudovirus neutralization",[40],0.156 µg/mL
same,"IC50, pseudovirus neutralization",[41],> 50 µg/mL
same,"IC50, pseudovirus neutralization",[42],> 50 µg/mL
PGT-144 (4970_K22) (antibody),IC50,[1],> 50 µg/mL
same,IC50,[2],> 50 µg/mL
same,IC50,[3],> 50 µg/mL
same,IC50,[4],0.113 µg/mL
same,IC50,[5],> 50 µg/mL
same,IC50,[6],> 50 µg/mL
same,IC50,[7],> 50 µg/mL
same,IC50,[8],> 50 µg/mL
same,IC50,[9],> 50 µg/mL
same,IC50,[10],> 50 µg/mL
same,IC50,[11],> 50 µg/mL
same,IC50,[12],> 50 µg/mL
same,IC50,[13],> 50 µg/mL
same,IC50,[14],0.459 µg/mL
same,IC50,[16],0.105 µg/mL
same,IC50,[17],20.6 µg/mL
same,IC50,[18],0.507 µg/mL
same,IC50,[19],> 50 µg/mL
same,IC50,[20],> 50 µg/mL
same,IC50,[21],0.509 µg/mL
same,IC50,[22],0.014 µg/mL
same,IC50,[23],> 50 µg/mL
same,IC50,[24],> 50 µg/mL
same,IC50,[25],> 50 µg/mL
same,IC50,[26],> 50 µg/mL
same,IC50,[27],8.93 µg/mL
same,IC50,[28],> 50 µg/mL
same,IC50,[29],0.382 µg/mL
same,IC50,[30],1.16 µg/mL
same,"IC50, pseudovirus neutralization",[31],> 50 µg/mL
same,"IC50, pseudovirus neutralization",[32],3.55 µg/mL
same,"IC50, pseudovirus neutralization",[33],> 50 µg/mL
same,"IC50, pseudovirus neutralization",[34],7.78 µg/mL
same,"IC50, pseudovirus neutralization",[35],> 50 µg/mL
same,"IC50, pseudovirus neutralization",[36],> 50 µg/mL
same,"IC50, pseudovirus neutralization",[37],> 50 µg/mL
same,"IC50, pseudovirus neutralization",[38],> 50 µg/mL
same,"IC50, pseudovirus neutralization",[39],> 50 µg/mL
same,"IC50, pseudovirus neutralization",[40],44.6 µg/mL
same,"IC50, pseudovirus neutralization",[41],> 50 µg/mL
same,"IC50, pseudovirus neutralization",[42],> 50 µg/mL
